Test results: the DeepSol protein solubility set

Assay: soluble on expression in E. coli; label from the status in PepcDB or PDB records

Sequence	soluble on expression in E. coli
MNITQAAEQAIRLWFNTPDPMQRLHMAKTIRTWIRQDKFAQVDQANMPNCVQQILNIIYDGLKPQPVQLPISYYAQLWYNLLDILRRFTFLPIISPYIHQVVQMFCPRENGPQDFRELICNLISLNWQKDPHMKHCANQVFQIFNCIIMGVKNEKLRTEFAQHLKFEKLVGTLSEYFNPQVHPGMINPAIFIIFRFIISKDTRLKDYFIWNNNPHDQPPPPTGLIIKLNAVMIGSYRLIAGQNPETLPQNPELAHLIQVIIRTFDLLGLLLHDSDAIDGFVRSDGVGAITTVVQYPNNDLIRAGCKLLLQVSDAKALAKTPLENILPFLLRLIEIHPDDEVIYSGTGFLSNVVAHKQHVKDIAIRSNAIFLLHTIISKYPRLDELTDAPKRNRVCEIICNCLRTLNNFLMMWIPTPNGETKTAGPNEKQQVCKFIEIDILKKLMSCLSCEGMDTPGLLELRSTILRSFILLLRTPFVPKDGVLNVIDENRKENLIGHICAAYSWVFRQPNNTRTQSTKQQLVERTISLLLVLMEQCGAEKEVAQYSYSIDCPLNLLNGNQVKPTFIHNVLVVCDKILEHCPTRADIWTIDRPMLEGLTNHRNSDIAKAANSLLSRFPEN	soluble
MRGLDYRWIEALDSVVSKGSFERAAEQLFISQSAVSQRIKQLEKYLAQPVLIREQPPRPTLVGKKLLGLYRRVCLIEQELVPELTNQEHVRPVSMSIATNADSLATWLLPALDKVMKSRQVELNLVIYGESRTLDKLKNGEVVGAISLEPQPITGCSAEYLGQMEYLCVASPEFYQKYFAKGVTPRSLIKAPAVSYDQYDELHNKFLWDYFAVPRDKVINHTVGSSEAFVRLALSGAAYCLIPRLQIISELESGALINMTPDFMLSYPIFWHHWQLETGVLLEISEAITAYAKSVLPQ	not soluble
MLAAFQQQQTRKFSPITNTSASCLNMQPNPPKISIAPSVISVIGVHMEKHKLKIKTGQNIVLSASILPIQATNKELIWSNMNSDIITIYPKGDTVTITGKSAGKAVVIVTTAEGKFRDLCVIHVQPYMTNPK	not soluble
MADLDDIKDGKDFHTDKPQTNTLFALKGCGALDWGMQSRLARIFNPKTRKTVMLAFDHGYFQGPTTGLERIDINIAPLFEYADVLMCTRGILRSVVPPAINKPVVLRASGANSILTELSNEAVAVAMDDAVRLNSCAAAAQVYIGSEHEHQSIKNIIQLIDAGLRVGMPIMAVTGVGKDMARDQRYFSLATRIAAEMGAQIIKTYYVDKGFERIAAGCPVPIVIAGGKKLPEREALEMCYQAIDQGASGVDMGRNIFQSEDPVAMIKAVHAVVHHNETAERAYELFLSEKS	not soluble
MYSFELDKLKIELKTWEHDFIDKNKREPTRDDIKSLRTVRQMYKQYSTLKKKQSLQRQKVDTQESVELPAHKKDHDEVVEIGPTPQVYGKAISIFDMNLSPIKPIYMTFTNNIDVNNDNSKTISNESSPRKTILLKSSPADRTLVAEPISSVKRQLNFQMLNASSTRTPTSSPCKNRNGKLVEIKKCSPTINPPLESGKPSGYYGPNSPLKLDEENIHLNISLNSSTKRRLQIAYPSLQKTPSKDQADISTSFSPSPLIRRPLTKSLIELAREHTEIVKEFGVLQEEDIEEEEEGEEGENGYDEKNHEDDFGLEDELIRPKVVKDIFQEDDDNDDSQAREDTFIRKRPKRRKVIRRLRDNDPETETAGFERDVHKELVKLKRRKVAEFLGSTSQISDTEFEHDPEASSGVVSSEQKPTAKRKGRKKYNLVSNNFRRLKLPKKNRFSNGRWGRR	not soluble
MSTKMTPPVEKNEFIDVVFEDLTHDGAGVAKVKGYPIFVKNGLPGEEAQIKIIKVKKNFAFGRLMKLHTESPYRKDAECPVYNQCGGCQLQHLTYEGQLQAKEKQVRDVMQRIGGLADVPVHPVLGMKNPWVYRNKAQVPIGEREGGLVAGFYRQGTHDIINMESCLIQAEENDTLIQEVKRICEKHGITAYNEERNKGTLRHVMARYGQVTGEIMLVFITRTAELPNKKAIIEEIAAKFPEVKSIVQNVNTKRTNVIFGDKTTVLYGSEYIYDFIGDIKFAISARSFYQVNPEQTKVLYDKTLEYAKLNGNETVIDAYCGIGSISLFLAQKAKKVYGVEIVPEAIEDANRNAALNNMTNAEFGVGEAEVVIPKWYKEGVIADTMVVDPPRKGCDEALLNTIIDMKPNRVVYVSCNPATLARDLKVLEEGGYKTQEVQPVDMFPHTTHVECVAWLKLV	not soluble
DDAYVERRVPQEMLGGHSQGDELPIHFSRSDAFERLPQPEPIRRRLVRVGSSPVHEERMVHQQIGDLCVGDTVAHARFGIGIIESLEGEGDNAKAEVSFQQVGRKRLLLRFAKLSKVEKDSI	not soluble
MGSDKIHHHHHHAGVVVPKYTPSTENPGGPGEEPGDGLIDPAEPLDRGFMHLKGRELKSLNSISITGLNDGEKVILSTLAGLAARVTGDQVYINEGGPSSVWLKQMQNKYGIPVNTYNALAPLVQHYVETGVIKGYIVYTPYSEGQSHSINVATSLCGLLRGIAVPESLVDKVKAMGVTTELMDVRSYDEKWLYENYKDQLDKSLAADMKPEIFHHLRDYITMTNAFAFYDYNARRDWSWRTSILKDLDKGAYCFGYYDLDEWGMVNNASQLGVSMLPTDQAANLATLSSIYDTTGLKQRPATKEVVTEENVHYVTFLVSDGDNIAFNLWGQQGYMDHDLHGQFPLGYTISPSLYDLAPAALRWYYENSKEGDYFVAGPSGSSYIFPSKMSDADLDDYLAKLNEYVDKSGLNICNILDQKIMDNPKVYNKYLAQPNIDAIFYTGYGEKGDGRIKFSDNGKPVIEQRSVLWEGIDGGSNRGEESTVISQINSRSANPHSADGYTFVFVHCWTKNQQSIKTVIDGLNDNVRVVPVDQFVQLVKQNLGPK	not soluble
AIATSDITSGFAAVATALEHEGQLRERLRLQRDELDVAVRSLETQLSRLHYEVDWSDAVAGARQQLRTIGSGFLELQSLVPEGMFYKYNDLWRQCSIHIVQSCLLIRFFETVHAPGPQFSDNLDQSQANDSVETCTAALVTKDEVLEMLDGEKAPTQPALRLDLEEYLLGLCGGIQELARLAANRVVLGDYATPRKLAFFCNQVYAGFRLLNFRNDSLRRSYDALKYAIQRLDSILYDLRIRKLS	soluble
ASWSHPQFEKIEGRDTWRYAFEEAMTDVQGVYAQKFKEEIEANSDHEIQLFPYGTLGESADIMEQTQDGILQFVDQSPGFTGSLIPEAQVFFVPYLLPTDQDHLARFFKESKAINDMFKPLYADQGLELLNMFPEGEVAMTTKTPVTTCSDLDEVKFRVMTNPLLVESYKAFGATPTPLPWGEVYGGLQTNVIQGQENPTFFLYSTKIYEVTDYITYAGHNNFTTAVMANKDFYDGLSAEDQQLVQNAALAAYDHTVVYQQQAADTELAKIMEAKPEMQVTVLTDEQRSCFKEAAAEVEAKFIEMTGDSGAAILKQMKADLAATAN	soluble
SEVLRPQLIRIDGRNYRKNPVQEQTYQHEEDEEDFYQGSMECADEPCDAYEVEQTPQGFRSTLRAPSLLYKHIVGKRGDTRKKIEMETKTSISIPKPGQDGEIVITGQHRNGVISARTRIDVLLDTFRRKQPFTHFLAFFLNEVEVQEGFLRFQEEVLAKCSMDHGVDSSIFQNPKKLHLTIGMLVLLSEEEIQQTCEMLQQCKEEFINDISGGKPLEVEMAGIEYMNDDPGMVDVLYAKVHMKDGSNRLQELVDRVLERFQASGLIVKEWNSVKLHATVMNTLFRKDPNAEGRYNLYTAEGKYIFKERESFDGRNILKLFENFYFGSLKLNSIHISQRFTVDSFGNYASCGQIDFS	soluble
MAHHHHHHMIRKIIILMFTFFSNIHNEKIYHHKQRRKFLKGPLGYLNRNVIQKKHYNLYAKKFINYKEIQIQRINDYRKRSGVDKNNINYNLRDTYNYHETHLFVRNEVLPTLAKIENENLKEKEKNKEIFRNINDYNSNFTRQTFLQFLMDLYNIFLKIDDLFLENKTYFSILIYNGPMQLTNHLYDDIIYVSSVVENSDDVSPSEYCMEYISHLENLCEENKLSFLAHAYVFYKNFHLSKEHLLKSICKYLNIIKKLKSSTYVADVENFEVSQKCFLHLLFCLNKMSRKWSRWEKDNFLASLHNATNKMMILTKHFEKVKS	not soluble
MQIFLLGLDNTTHTLDVDASTTLSAIKGVIGAGEEFSISYGSKVLSEELTLGECQIESLSTLSVNGRLLGGKVHGSLARAGKVRAQTPKVDKQDKKKKKRGRAFRRVQYTRRYVNVASGPGKKRGPNSNS	not soluble
MRLFAINAGNFKLDGGAMFGVVPKSIWNKLNPADSNNLCTWATRCLLIENGKQLVLIDTGLGDKQDESFFRHYYRDTPQTWDTLLKPYGFHSSDITDVVLTHLHFDHVGGALEKKGDKIVPTFSNARYWSNTRHWDWAVEPNPREKASFLKDNLFPLQESGQLYFVDTQNLPFEWMDFIFVDGHTEQQMLPLITTPAEKKILYAADLLPSAGHIPMPYIMSYDVRPLVSMQEKERVFNQVLAEDWTVFLEHDLSNACISLQQTEKGIRLNNVFQISDFNLEHHHHHH	not soluble
GMSIVGNVENLINGVGELWNKYVKHEFILKMRDGSLPLDIFRYYLIQDGKYVEDMLRALLIASSKGPIDKVTKILNLVFSSRDKGLETHGKLYSKLDISRDVIVKTGYNLINYAYTRHLYYYANLDWNKFLVAWTPCMFGYSIVGDYVIDSPNEVYKTWASFYASTEYKKRIEAILYALDEVSITEDLLNIFINSVRFEIGFWDASLRKDPTVY	soluble
MKYGYFDNDNREYVITRPDVPAPWTNYLGTEKFCTVISHNAGGYSFYNSPEYNRVTKFRPNATFDRPGHYVYLRDDDSGDYWSISWQPVAKSLDEAQYQIRHGLSYSKFQCDYNGIHARKTLFVPKGEDAEIWDVVIKNTSDQVRTISAFSFVEFSFSHIQSDNQNHQMSLYSAGTAYRPGLIEYDLYYNTDDFEGFYYLASTFDPDSYDGQRDRFLGLYRDEANPLAVEQGRCSNSAQTCYNHCGSLHKQFTLQPGEEIRFAYILGIGKGNGERLREHYQDVANIDAAFAAIKAHWDERCAKFQVKSPNQGLDTMINAWTLYQAETCVVWSRFASFIEVGGRTGLGYRDTAQDAISVPHANPEMTRKRIVDLLRGQVKAGYGLHLFDPDWFDPEKEDVAPSKSPTVVPTPSDEDKIHGIKDTCSDDHLWLIPTICKYVMETGETSFFDQMIPYADGGEASVYEHMKAALDFSAEYVGQTGICKGLRADWNDCLNLGGGESSMVSFLHFWALQEFIDLAKFLGKDQDVNTYTEMAANVREACETHLWDDEGGWYIRGLTKNGDKIGTAQQQEGRVHLESNTLAVLSGLASQERGEQAMDAVDEHLFSPYGLHLNAPSFSTPNDDIGFVTRVYQGVKENGAIFSHPNPWAWVAETKLGRGDRAMKFYDALNPYNQNDIIEKRIAEPYSYVQFIMGRDHQDHGRANHPWLTGTSGWAYFAVTNYILGVQSGFTGLSVDPCIPSDWPGFEVTRQWRGATYHIQVENPDHVSKGVKSITLNGAPIQGRIPPQAQGSDNQVVVVLGHHHHHH	soluble
MGSDKIHHHHHHMDTLNQIDISIIIPIYNVEKYLTVCIDSLKNQGGLRMEIILVNDGSTDLSGEIADEYAKKEERIKVIHQENGGASAARNVGLDIATEEYIAFLDSDDWIKDESLSLLYDEAVKHHADVVMGNMWLCHQDGSMDKPFKCISNGSIKELLSGKESFIELVKTCFYLPMPFKYIYNRKYLHKIQARFEEGIMHEDELWCPIVLCQAERMVITNIEFYYYRQNEESVMHTTSLARRLKSLFQVTEGLIKFSDQFVSSKTSVDLRSWWYVNILRLYSKAFTLLPNIKDSSYIVHKHYLDRFWRDCGQMIPESIQRCRNYYYKAEAGLKEYTDWRVSDWVAGVDCQIKAGKKVMLVFNTINGEDLQLKIEDVPVDWVITTDRKYFQQATIVVFHLPTLHYELENDQDKLEGQTWVSWHLESEKDDPGINDPEISELFDLLISDPQDSEGEQHPLLRLCRNYVNNG	not soluble
